According to publication PMC5823465 (PLoS Neglected Tropical Diseases, 2018):

B1: VIS513 (antibody, V domains shown)
VH: QVQLVQSGAEVKKPGASVKVSCKAGFNIKDVYMSWVRQAPEQGLEWMGRIDPENGDTKYDPKLQGRVTMTADTSTNTAYMELRSLRSDDTAVYYCARGWEGFAYWGQGTLVTVSS
VL: DIVMTQSPASLAVSLGQRATISCRASENVDKYGNSFMHWYQQKPGQPPKLLIYRASELQWGVPDRFSGSGSGTDFTLTISSLQAEDVAVYYCQRSNEVPWTFGQGTKLEIK

Experiments:
Assay in all cases: ELISA; competition ELISA, KD in solution at equilibrium: serial dilutions of EDIII mixed with antibody at 0.2 nM, incubated overnight; unbound or singly bound antibody measured on Maxisorp plates coated with EDIII-DV1, detected with HRP rabbit anti-human IgG; mass action model adjusted for antibody bivalence
VIS513 = biological target: VIS513
[1] = biological target: EDIII domain of the E protein, DENV3 H87, wild type (Dengue virus type 3, strain H87 …, UniProt A0A0U2UQM7, strain); conditions: both partners purified
[2] = biological target: EDIII domain of the E protein, DENV1 HAW, wild type (Dengue virus type 1, strain Hawaii 1944 …, UniProt A0A097PIH4, strain); conditions: both partners purified
[3] = biological target: T1, EDIII domain of the E protein, DENV2 NGC, wild type (Dengue virus type 2, strain NGC …, UniProt A0A097PIE2, strain); conditions: both partners purified
T1 construct: also called DENV2 NGC WT; DV2-NGC

Molecule	Kd (VIS513)	also measured
EDIII domain of the E protein, DENV4 BC287, K310R (domain or fragment)	618 nM	
EDIII domain of the E protein, DENV1 HAW, K310R (domain or fragment)	0.39 nM	
EDIII domain of the E protein, DENV3 H87, L301S (domain or fragment)	1.7 nM	
EDIII domain of the E protein, DENV3 H87, K308R (domain or fragment)	170 nM	
EDIII domain of the E protein, DENV2 NGC, K310R (domain or fragment)	0.79 nM	
B1		Kd [1]: 1.5 nM; Kd [2]: < 0.1 nM; Kd [3]: < 0.1 nM
